# Experimental data from PMC11580166, “VPS26 Moonlights as a β-Arrestin-like Adapter for a 7-Transmembrane RGS Protein in Arabidopsis thaliana” (Biochemistry, 2024).
# Where no end group is shown, it is not given here. [ ]: non-standard residue; d: D form. pS = N[C@@H](COP(=O)(O)O)C(=O)O
# T1: VPS26A/VPS26B heterodimer (Arabidopsis thaliana, UniProt Q9FJD0 1-302; Q9T091 1-303)
# T1 chain 1: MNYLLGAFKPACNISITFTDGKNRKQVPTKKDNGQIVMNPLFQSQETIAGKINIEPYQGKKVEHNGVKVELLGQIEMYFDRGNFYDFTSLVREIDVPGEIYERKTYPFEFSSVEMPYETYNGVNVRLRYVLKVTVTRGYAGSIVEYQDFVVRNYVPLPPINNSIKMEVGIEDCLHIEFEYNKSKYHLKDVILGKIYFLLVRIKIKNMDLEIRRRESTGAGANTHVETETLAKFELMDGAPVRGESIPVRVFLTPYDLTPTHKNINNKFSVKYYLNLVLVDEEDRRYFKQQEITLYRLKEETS
# T1 chain 2: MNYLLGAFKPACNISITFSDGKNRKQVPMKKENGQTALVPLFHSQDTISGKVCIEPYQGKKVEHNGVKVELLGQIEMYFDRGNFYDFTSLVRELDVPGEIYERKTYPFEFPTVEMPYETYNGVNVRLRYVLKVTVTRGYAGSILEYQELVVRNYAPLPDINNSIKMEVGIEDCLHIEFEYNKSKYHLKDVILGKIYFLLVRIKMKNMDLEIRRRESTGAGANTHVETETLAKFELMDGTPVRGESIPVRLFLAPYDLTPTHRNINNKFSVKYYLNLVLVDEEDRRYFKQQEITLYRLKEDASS
# T2: Vacuolar Protein Sorting-Associated 26B (AtVPS26B) (Arabidopsis thaliana, UniProt Q9T091 1-303)
# T2 chain: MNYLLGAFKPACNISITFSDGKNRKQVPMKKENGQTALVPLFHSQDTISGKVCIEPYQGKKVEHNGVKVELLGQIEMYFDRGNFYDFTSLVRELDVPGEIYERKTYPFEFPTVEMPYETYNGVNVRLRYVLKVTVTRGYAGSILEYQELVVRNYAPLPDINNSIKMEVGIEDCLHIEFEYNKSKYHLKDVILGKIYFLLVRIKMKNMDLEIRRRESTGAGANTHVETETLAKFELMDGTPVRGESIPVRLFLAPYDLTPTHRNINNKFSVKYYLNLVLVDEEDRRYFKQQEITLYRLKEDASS
# T3: Vacuolar Protein Sorting-Associated 26A (AtVPS26A) (Arabidopsis thaliana, UniProt Q9FJD0 1-302)
# T3 chain: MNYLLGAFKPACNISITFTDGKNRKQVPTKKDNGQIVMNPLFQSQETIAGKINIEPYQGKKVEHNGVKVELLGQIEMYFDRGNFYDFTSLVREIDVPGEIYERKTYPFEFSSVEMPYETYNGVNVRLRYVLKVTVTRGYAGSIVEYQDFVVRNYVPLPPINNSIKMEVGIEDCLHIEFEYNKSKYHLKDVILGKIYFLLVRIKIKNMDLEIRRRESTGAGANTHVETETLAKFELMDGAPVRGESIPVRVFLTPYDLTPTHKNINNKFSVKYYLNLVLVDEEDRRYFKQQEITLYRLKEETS
# T4: Full-length AtRGS1 with a phosphorylated C-tail peptide ligated by sortase A (Arabidopsis thaliana, phosphoserine at 428, 431 and 435)
# T4 chain: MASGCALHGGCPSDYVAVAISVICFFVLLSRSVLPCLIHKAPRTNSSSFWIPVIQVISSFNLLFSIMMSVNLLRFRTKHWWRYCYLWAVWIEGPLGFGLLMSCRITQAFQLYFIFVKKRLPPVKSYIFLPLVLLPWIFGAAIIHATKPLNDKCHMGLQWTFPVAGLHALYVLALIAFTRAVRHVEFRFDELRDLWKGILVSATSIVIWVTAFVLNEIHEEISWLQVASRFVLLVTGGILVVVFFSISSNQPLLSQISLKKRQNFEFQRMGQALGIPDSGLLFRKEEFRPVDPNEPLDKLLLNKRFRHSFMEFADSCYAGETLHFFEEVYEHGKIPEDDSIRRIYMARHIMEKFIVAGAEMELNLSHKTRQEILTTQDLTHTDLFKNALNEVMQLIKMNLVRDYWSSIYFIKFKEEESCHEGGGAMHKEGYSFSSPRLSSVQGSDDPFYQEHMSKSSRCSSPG
# B1: AtRGS1 RGS domain plus C-terminal tail (residues 284-459) (domain or fragment)
# chain: KEEFRPVDPNEPLDKLLLNKRFRHSFMEFADSCYAGETLHFFEEVYEHGKIPEDDSIRRIYMARHIMEKFIVAGAEMELNLSHKTRQEILTTQDLTHTDLFKNALNEVMQLIKMNLVRDYWSSIYFIKFKEEESCHEAMHKEGYSFSSPRLSSVQGSDDPFYQEHMSKSSRCSSPG
# B2: AtRGS1 pSer C tail peptide (A421-G459, phosphorylated at S428, S431, S435) (peptide)
# peptide: GGGAMHKEGY[pS]FS[pS]PRL[pS]SVQGSDDPFYQEHMSKSSRCSSPG
# notes: N-terminal GGG added to the peptide; AtRGS1 C-terminal tail, Arabidopsis thaliana, UniProt Q8H1F2, residues A421-G459; Purity 87%; also called RGS1 pC-tail; ptail; source: synthetic peptide (UNC Peptide Core Facility)
# B3: AtRGS1 C tail peptide (A421-G459), unphosphorylated (peptide)
# peptide: GGGAMHKEGYSFSSPRLSSVQGSDDPFYQEHMSKSSRCSSPG
# notes: N-terminal GGG added to the peptide; AtRGS1 C-terminal tail, Arabidopsis thaliana, UniProt Q8H1F2, residues A421-G459; Purity 99%; also called unphosphorylated C-tail; source: synthetic peptide (UNC Peptide Core Facility)
# B4: AtRGS1 truncated C tail peptide (A421-E447), unphosphorylated (peptide)
# peptide: GGGAMHKEGYSFSSPRLSSVQGSDDPFYQE
# notes: N-terminal GGG added to the peptide; AtRGS1 C-terminal tail, Arabidopsis thaliana, UniProt Q8H1F2, residues A421-E447; also called ΔC tail; RGS1 delta C-tail; source: synthetic peptide (Tufts University Peptide Core Facility)
# B5: VPS26B Y85A/E93A mutant (natural protein, Arabidopsis thaliana, UniProt Q9T091 1-303, looked up)
# chain: MNYLLGAFKPACNISITFSDGKNRKQVPMKKENGQTALVPLFHSQDTISGKVCIEPYQGKKVEHNGVKVELLGQIEMYFDRGNFADFTSLVRALDVPGEIYERKTYPFEFPTVEMPYETYNGVNVRLRYVLKVTVTRGYAGSILEYQELVVRNYAPLPDINNSIKMEVGIEDCLHIEFEYNKSKYHLKDVILGKIYFLLVRIKMKNMDLEIRRRESTGAGANTHVETETLAKFELMDGTPVRGESIPVRLFLAPYDLTPTHRNINNKFSVKYYLNLVLVDEEDRRYFKQQEITLYRLKEDASS
# notes: AtVPS26B, Arabidopsis thaliana, UniProt Q9T091, with Y85A and E93A
# B6: Vacuolar Protein Sorting-Associated 26A (AtVPS26A) (natural protein, Arabidopsis thaliana, UniProt Q9FJD0 1-302, looked up)
# chain: MNYLLGAFKPACNISITFTDGKNRKQVPTKKDNGQIVMNPLFQSQETIAGKINIEPYQGKKVEHNGVKVELLGQIEMYFDRGNFYDFTSLVREIDVPGEIYERKTYPFEFSSVEMPYETYNGVNVRLRYVLKVTVTRGYAGSIVEYQDFVVRNYVPLPPINNSIKMEVGIEDCLHIEFEYNKSKYHLKDVILGKIYFLLVRIKIKNMDLEIRRRESTGAGANTHVETETLAKFELMDGAPVRGESIPVRVFLTPYDLTPTHKNINNKFSVKYYLNLVLVDEEDRRYFKQQEITLYRLKEETS
# notes: AtVPS26A, Arabidopsis thaliana, UniProt Q9FJD0, gene At5g53530; Fluorescently labelled (Monolith RED-NHS or RED-MALEIMIDE kit) when it was the labelled partner in MST; the His-SUMO tag may have been kept in mass photometry (surmise); also called AtVSP26A; source: E. coli BL21 (DE3), purified (nickel resin, ULP1 cleavage, second nickel, SEC)
# B7: VPS26A/VPS26B heterodimer (complex, Arabidopsis thaliana)
# chain 1: MNYLLGAFKPACNISITFTDGKNRKQVPTKKDNGQIVMNPLFQSQETIAGKINIEPYQGKKVEHNGVKVELLGQIEMYFDRGNFYDFTSLVREIDVPGEIYERKTYPFEFSSVEMPYETYNGVNVRLRYVLKVTVTRGYAGSIVEYQDFVVRNYVPLPPINNSIKMEVGIEDCLHIEFEYNKSKYHLKDVILGKIYFLLVRIKIKNMDLEIRRRESTGAGANTHVETETLAKFELMDGAPVRGESIPVRVFLTPYDLTPTHKNINNKFSVKYYLNLVLVDEEDRRYFKQQEITLYRLKEETS
# chain 2: MNYLLGAFKPACNISITFSDGKNRKQVPMKKENGQTALVPLFHSQDTISGKVCIEPYQGKKVEHNGVKVELLGQIEMYFDRGNFYDFTSLVRELDVPGEIYERKTYPFEFPTVEMPYETYNGVNVRLRYVLKVTVTRGYAGSILEYQELVVRNYAPLPDINNSIKMEVGIEDCLHIEFEYNKSKYHLKDVILGKIYFLLVRIKMKNMDLEIRRRESTGAGANTHVETETLAKFELMDGTPVRGESIPVRLFLAPYDLTPTHRNINNKFSVKYYLNLVLVDEEDRRYFKQQEITLYRLKEDASS
# notes: AtVPS26A, Arabidopsis thaliana, UniProt Q9FJD0, as m1; AtVPS26B, Arabidopsis thaliana, UniProt Q9T091, as m2; In the number-and-brightness rows the id stands for the endogenous heterodimer of the plant; also called VPS26A/B; VPS26A/B dimer; source: E. coli BL21 (DE3), each subunit purified, mixed; copies: 1 + 1
# Tests used:
# [1] = target: AtGPA1 (Arabidopsis thaliana) (UniProt P18064); conditions: cited from earlier work
# Sequence of AtGPA1 (Arabidopsis thaliana) (P18064 2-383): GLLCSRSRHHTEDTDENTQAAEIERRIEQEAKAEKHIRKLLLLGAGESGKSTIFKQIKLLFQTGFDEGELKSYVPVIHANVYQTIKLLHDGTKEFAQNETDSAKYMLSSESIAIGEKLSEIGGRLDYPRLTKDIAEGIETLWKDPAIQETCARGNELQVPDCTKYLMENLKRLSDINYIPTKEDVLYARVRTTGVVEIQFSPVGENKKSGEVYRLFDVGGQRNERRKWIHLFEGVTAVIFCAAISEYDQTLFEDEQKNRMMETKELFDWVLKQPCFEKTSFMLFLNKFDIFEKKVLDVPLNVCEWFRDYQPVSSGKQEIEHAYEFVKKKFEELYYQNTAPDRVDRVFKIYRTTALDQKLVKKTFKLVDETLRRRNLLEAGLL
# [2] = target: T1, VPS26A/VPS26B heterodimer; assay: ITC
# [3] = target: T2, Vacuolar Protein Sorting-Associated 26B …; assay: ITC
# [4] = target: T3, Vacuolar Protein Sorting-Associated 26A …; assay: ITC
# [5] = target: Vacuolar Protein Sorting-Associated 26A (AtVPS26A) (Arabidopsis thaliana) (UniProt Q9FJD0); assay: MST; 20 nM fluorescence-labelled protein (RED-NHS or RED-…), ligand dilution series, 25 °C, PBS pH 7.4, 0.05% Tween-20; apparent Kd; averages of 2 to 4 experiments
# [6] = target: Vacuolar Protein Sorting-Associated 26B (AtVPS26B) (Arabidopsis thaliana) (UniProt Q9T091); assay: as above
# [7] = target: T1, VPS26A/VPS26B heterodimer; assay: ITC; phosphorylated S428, S431, S435
# [8] = target: T2, Vacuolar Protein Sorting-Associated 26B …; assay: ITC; phosphorylated S428, S431, S435
# [9] = target: T3, Vacuolar Protein Sorting-Associated 26A …; assay: ITC; phosphorylated S428, S431, S435
# [10] = target: B7; assay: MST; 20 nM fluorescence-labelled protein (RED-NHS or RED-MALEIMIDE), ligand dilution series, 25 °C, PBS pH 7.4, 0.05% Tween-20; apparent Kd; averages of 2 to 4 experiments; conditions: both partners purified
# [11] = target: B6; assay: as above; conditions: both partners purified
# [12] = target: T5, Vacuolar Protein Sorting-Associated 26B (AtVPS26B) (Arabidopsis thaliana, UniProt Q9T091 1-303); assay: as above; conditions: both partners purified
# T5 construct: AtVPS26B, Arabidopsis thaliana, UniProt Q9T091, gene At4g27690; the His-SUMO tag may have been kept in mass photometry (surmise); also called VSP26B; source: E. coli BL21 (DE3), purified (nickel resin, ULP1 cleavage, second nickel, SEC)
# [13] = target: T4, Full-length AtRGS1 with a …; assay: mass photometry; purified AtRGS1 in detergent micelle (mixture of about 50% tail-ligated and truncated protein) with VPS26A/B heterodimer added; conditions: both partners purified
molecule,measurement,setting,value
AtRGS1 (from UniProt Q8H1F2),Kd,[1],125 nM
B1,Kd,[2],22 nM
same,Kd,[3],40 nM
same,Kd,[4],38 nM
same,Kd,[5],34 nM
same,Kd,[6],35 nM
B2,Kd,[7],12 nM
same,Kd,[8],17 nM
same,Kd,[9],71 nM
same,fold higher affinity than the unphosphorylated C-tail,[10],~5 fold
B3,Kd,[2],63 nM
same,Kd,[4],317 nM
same,Kd,[11],217 nM
same,Kd,[12],253 nM
B4,Kd,[2],123 nM
same,binding result,[10],binds
B5,fold lower heterodimerization than VPS26B wildtype,[11],~10 fold
B6,Kd,[12],~18 nM
B7,stoichiometry N,[13],1
